Experimental findings from publication PMC7987032 (medRxiv, 2021) are described below.

This assay deals with SARS-CoV-2 RBD (SARS-CoV-2 (Wuhan-Hu-1), UniProt P0DTC2). Put plainly: BLI.

B1: CV2-75 (antibody, V domains shown)
VH: QVQLQESGPGLVKPSETLSLTCTVSGGSISSYYWSWIRQPPGKGLEWIGYVYYSGSTNYNPSLKSRVTISVDTSKNEFSLKLSSVTAADTAVYYCASSQRPDGNLYYFDYWGQGTLVTVSS
VL: SYVLTQPPSVSVAPGQTARITCGGNNIGSKTVHWYQQKPGQAPVLVVYDDSDRPSGIPERFSGSNSGNTATLTISRVEAGDEADYYCQVWDSSSDHYVFGTGTKVTVL
Take B1: the binding result is given as “binds”.
